# Source: patent publication US20250296984A1, “THERAPEUTIC AND DIAGNOSTIC AGENTS AND USES THEREOF” (priority 2022, published 2025)
# B1: 7B1F3: mouse IgG1 kappa antibody against US28 ECD1 Peptide-N; VH SEQ ID NO: 211, VL SEQ ID NO: 213 (antibody, V domains shown)
# VH: EVQLQQSGAELAKPGASVKMSCKASGYTFTNYWMHWVKQRPGQGLEWIGYVNPRTGYTEYNQKFKDKATLTADKSSRTAYMQLSSLTSEDSAVYSCARILNGTGFAYWGQGTLVTVSA
# VL: DIVLTQSPSSLTVSVGEKFTMSCKSSQSLLYSSNQKNYLAWYQQKPGQSPKLLIYWASTRESGVPDRFTGSGSGTDFTLAISSVKPEDLAIYYCQQYYSFPLTFGAGTKLEIK
# modifications: Mature form of VH sequence of 7B1F3, without the leader sequence; Mature form of VL sequence of 7B1F3, without the leader sequence
# B2: 13-5G6-1D3: mouse monoclonal IgG1 kappa antibody against US28 ECD3; VH SEQ ID NO: 12, VL SEQ ID NO: 18 (antibody, V domains shown)
# VH: EVKLVESGGGLVQPGGSLRLACATSGFTFTDYYMSWVRQPPGKALEWLGFIRSKANGYTTEYSASVKGRFTISRDNSQSILYLQMNTLRSEDSATYYCARDERRTAWLAYWGQGTLVTVSA
# VL: DVLMTQTPLSLPVSLGDQASISCRSSQSIVHSNGNTYLDWYLQKPGQSPKLLIYKVSNRFSGVPDRFSGSGSGTDFTLKISRVEAEDLGVYYCFQGSHVPTWTFGGGTKLEIK
# modifications: Mature form of VH sequence of 1D3, without the leader sequence; Mature form of VL sequence of 1D3, without the leader sequence
# Experiments:
# [1] = molecular target: T1, human proteins on HuProt Human Proteome Microarray (Homo sapiens, UniProt Q13895); assay: HuProt Human Proteome Microarray, off-target human proteins; format: binding; set-up: key to Z Score: Z = (F635 − mean F635 of all spots) / SD; average of duplicate spots; key to S Score: difference between this protein's Z score and the next-ranked protein's; conditions: Protein: BYSL
# T1 construct: purchased CDI Labs (HuProt); host or cells: yeast S. cerevisiae
# T1 sequence (Q13895 1-437): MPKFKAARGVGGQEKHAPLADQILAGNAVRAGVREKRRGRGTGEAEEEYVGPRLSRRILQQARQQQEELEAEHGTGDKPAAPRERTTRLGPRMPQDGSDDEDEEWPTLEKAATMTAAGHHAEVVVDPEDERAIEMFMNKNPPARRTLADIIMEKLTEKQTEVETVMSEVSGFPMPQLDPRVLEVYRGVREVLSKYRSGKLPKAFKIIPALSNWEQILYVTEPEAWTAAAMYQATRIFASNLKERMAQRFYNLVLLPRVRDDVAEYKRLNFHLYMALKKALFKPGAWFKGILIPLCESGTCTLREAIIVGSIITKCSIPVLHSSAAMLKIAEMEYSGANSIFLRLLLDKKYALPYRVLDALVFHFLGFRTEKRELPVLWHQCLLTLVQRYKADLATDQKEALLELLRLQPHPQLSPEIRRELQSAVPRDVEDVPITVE
# Excerpt: (§1) The HuProt™ Human Proteome Microarray provides the largest number of unique, full-length, individually purified human proteins on a single microscope slide. It provides >21,000 unique human proteins, isoform variants, and protein fragments—covering 16,794 unique genes. This includes 15,889 of the 19,613 canonical human proteins described in the Human Protein Atlas, with broad coverage across protein subclasses. This allows thousands of interactions to be profiled in a high-throughput manner. The full-length recombinant proteins are expressed in the yeast S. cerevisiae, purified, and printed on glass slides in duplicate along with a set of control proteins (GST, BSA, histones, IgG, etc.). The full list of the different proteins included in the HuProt™ Human Proteome Microarray as used in this Example is provided as “List B” in the Research Disclosures publication (ISSN 0374-4353, Questel Ireland Ltd) with database numbers 707018, 707019 and 707020, each entitled “Large scale protein arrange target protein identities” and each digitally published on 27 Jan. 2023, the contents of each of which are incorporated herein by reference in their entirety, fo the purposes of the disclosure of the proteins defined by “List B”. “List B” begins in Research Disclosures publication 707018, is continued in Research Disclosures publication 707019, and concludes Research Disclosures publications 707020, and so the three publications are to be read consecutively as a single disclosure of the “List B” proteins. The HuProt™ microarray is not restricted to a particular type of surface coating, although the default is glass coated with ultrathin nitrocellulose film for the non-covalent, yet irreversible, capture of active proteins to the surface.
# (§2) Samples of humanised 7B1F3 and mouse 7B1F3 antibodies were analysed for binding specificities on HuProt™ human proteome arrays. A peptide with the sequence TDVLNQSKPVTL (“Peptide 3”) was added to the arrays at 0.1 mg/ml as a control.
# (§3) After blocking, the arrays were probed with the antibody samples (0.1 μg/ml) at room temperature for 1 hour. Then the arrays were washed with TBST for 10 min×3 and probed with Alexa647-anti-human IgG Fc or Alexa647-anti-mouse IgG secondary antibodies under conditions optimized by CDI Labs for signal detection.
# (§4) • Non-specific hits that directly bind to the secondary antibodies were eliminated from the analysis of the samples. • CDI software was used to quantify the specificity of each individual sample to specific proteins on the array based on Z Scores. • Z score is the average Z score of the duplicate spots of a given protein (each protein is printed in duplicate on a HuProt™ array). The Z score of each spot on a given array is calculated according to the algorithm below:
# (§5) Z=[F635−F635(avg)]/F635(std) • F635(avg) and F635(std) are the average and standard deviation of the F635 values of all spots on the array, respectively. • S score is the difference of the Z Scores of a given protein and the one ranked next to it. If the S score of the top hit is >3, the antibody is considered to be highly specific for the top hit. • F635 is the average foreground signal intensity of 2 replicate spots of a given protein in the detection channel (635 nm). • B635 is the average background signal intensity of 2 replicate spots of a given protein in the detection channel (635 nm).
# [2] = tested on: human proteins on HuProt Human Proteome Microarray; assay: as above; format: binding; set-up: key to Z Score: Z = (F635 − mean F635 of all spots) / SD; average of duplicate spots; key to S Score: difference between this protein's Z score and the next-ranked protein's
# Excerpt: as §1, §2, §3, §4, §5
# [3] = tested on: HCMV infected lung tissue; assay: Immunohistochemistry (IHC) on human lung tissue; conditions: normal lung tissue with HCMV DNA positive macrophages
# Excerpt: FIG. 12. […] binding in 1:400 dilution (w/v) to HCMV-infected human tissues were studied by using immunohistochemistry analysis (IHC). […] The arrows (in the non-colour version of this figure) mark the US28-13-5G6-1D3 rAb cytoplasmic staining on typical HCMV infected alveolar cells with the characteristic cytomegalo effect in the HCMV positive control slide. […] C. The same macrophages show positive HCMV DNA in the same lung biopsy, whereas there are no HCMV DNA signals in normal alveolar cells, which is coherent with the US28 staining in the same sample. […] E. The IE staining is negative for the alveolar HCMV positive macrophages in normal lung tissue. […] Colour versions of FIG. 12 are also provided alongside the non-colour versions.
# FIG. 25. The binding of the N-terminal antibodies to HCMV infected lung tissue and HCMV negative myometrium were studied by IHC. […] C. […] E. Mouse lung tissue with staining IgG was used as negative control antibody. […] As with the US28-13-5G6-1D3 rAb, the ECD1-binding molecules stained typical HCMV infected cells with the characteristic cytomegalo effect, showing strong cytoplasmic or membranous staining in these cells, as the US28 protein is known to be located in cytoplasm and cell membrane, and stained positively for some tissue macrophages, which are known to be carriers of latent or reactivated HCMV.
molecule,measurement,setting,value
B1,F635,[1],2210
same,Z Score,[1],6.3
same,F635,[2]; Protein: AGAP2,10020.5
same,S Score,[2]; Protein: AGAP2,15.511
same,Z Score,[2]; Protein: AGAP2,28.997
same,S Score,[2]; Protein: BYSL,0.378
same,S Score,[2]; Protein: CCDC97,0.353
same,F635,[2]; Protein: DNAJB2,3312
same,S Score,[2]; Protein: DNAJB2,0.235
same,Z Score,[2]; Protein: DNAJB2,9.502
same,F635,[2]; Protein: EXD2,2701.5
same,S Score,[2]; Protein: EXD2,1.271
same,Z Score,[2]; Protein: EXD2,7.728
same,S Score,[2]; Protein: FBXO2,2.911
same,S Score,[2]; Protein: LASP1,1.073
same,F635,[2]; Protein: SYNCRIP,2264
same,S Score,[2]; Protein: SYNCRIP,0.157
same,Z Score,[2]; Protein: SYNCRIP,6.457
same,F635,[2]; Protein: TRIM33,3231
same,S Score,[2]; Protein: TRIM33,1.539
same,Z Score,[2]; Protein: TRIM33,9.267
B2,IHC staining of normal lung tissue,[3],"positive US28 staining for macrophages, but negative staining for alveolar cells"
